Measurements as given in US5268275, “Vitamin K-dependent carboxylase” (The University of North Carolina at Chapel Hill, dated 1993).

Assays:
[1] = target: peptide FLEEL
[2] = target: T1, bovine vitamin K-dependent carboxylase (94,000 Mr protein from bovine liver microsomes) (bovine) (UniProt Q07175)
T1 sequence: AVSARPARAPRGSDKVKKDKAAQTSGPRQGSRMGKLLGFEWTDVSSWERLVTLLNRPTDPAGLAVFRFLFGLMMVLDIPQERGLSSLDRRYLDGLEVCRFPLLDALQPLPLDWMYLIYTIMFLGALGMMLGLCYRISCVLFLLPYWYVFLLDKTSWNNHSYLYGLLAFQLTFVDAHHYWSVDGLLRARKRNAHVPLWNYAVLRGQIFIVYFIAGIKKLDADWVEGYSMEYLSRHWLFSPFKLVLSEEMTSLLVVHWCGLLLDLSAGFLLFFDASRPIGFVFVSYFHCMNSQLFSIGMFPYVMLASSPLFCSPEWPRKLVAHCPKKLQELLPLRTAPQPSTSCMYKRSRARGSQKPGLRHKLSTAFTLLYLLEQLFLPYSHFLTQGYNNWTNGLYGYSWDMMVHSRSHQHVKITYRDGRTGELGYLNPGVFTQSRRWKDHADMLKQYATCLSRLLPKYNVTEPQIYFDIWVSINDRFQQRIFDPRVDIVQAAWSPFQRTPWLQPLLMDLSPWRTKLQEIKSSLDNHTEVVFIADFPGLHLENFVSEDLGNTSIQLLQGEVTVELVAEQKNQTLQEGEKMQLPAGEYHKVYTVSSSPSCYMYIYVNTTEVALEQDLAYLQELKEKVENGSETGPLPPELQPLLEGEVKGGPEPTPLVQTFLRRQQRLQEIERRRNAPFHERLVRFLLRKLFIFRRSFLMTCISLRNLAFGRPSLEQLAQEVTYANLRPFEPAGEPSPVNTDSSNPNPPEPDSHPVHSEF

[3] = target: T2, bovine vitamin K-dependent carboxylase (94,000 Mr protein from bovine liver microsomes) (bovine, UniProt Q07175); assay: competition of cross-linking of 125I-FIXQ/S to the carboxylase, 100-fold excess of proFIX19
T2 sequence: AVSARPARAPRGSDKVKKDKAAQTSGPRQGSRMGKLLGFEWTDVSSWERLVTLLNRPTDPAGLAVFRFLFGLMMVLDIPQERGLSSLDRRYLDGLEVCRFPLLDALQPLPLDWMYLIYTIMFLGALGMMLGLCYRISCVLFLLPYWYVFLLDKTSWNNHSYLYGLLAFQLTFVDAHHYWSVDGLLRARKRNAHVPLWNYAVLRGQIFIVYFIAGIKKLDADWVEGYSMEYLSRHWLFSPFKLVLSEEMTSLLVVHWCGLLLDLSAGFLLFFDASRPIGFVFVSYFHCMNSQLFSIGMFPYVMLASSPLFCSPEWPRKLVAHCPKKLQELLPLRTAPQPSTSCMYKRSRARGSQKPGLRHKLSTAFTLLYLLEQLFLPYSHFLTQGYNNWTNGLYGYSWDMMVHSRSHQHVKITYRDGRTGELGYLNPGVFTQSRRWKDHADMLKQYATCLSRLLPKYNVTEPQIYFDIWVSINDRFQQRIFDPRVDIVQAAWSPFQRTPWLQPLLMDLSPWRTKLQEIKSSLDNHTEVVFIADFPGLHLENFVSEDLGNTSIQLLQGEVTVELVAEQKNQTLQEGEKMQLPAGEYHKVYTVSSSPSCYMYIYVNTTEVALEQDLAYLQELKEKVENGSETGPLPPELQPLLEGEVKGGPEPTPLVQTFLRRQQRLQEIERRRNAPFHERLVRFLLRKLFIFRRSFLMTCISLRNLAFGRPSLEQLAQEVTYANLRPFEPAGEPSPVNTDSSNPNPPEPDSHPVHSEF
Text: In order to evaluate the binding specificity of FIXQ/S and attain an independent estimate of the molecular weight of the carboxylase, we cross-linked ^125I-FIXQ/S to 60-fold affinity-purified material (FIG. 1, lane 3). […] The minor bands in lane 2 were unaffected by competition (lane 1). By subtracting the molecular weight of FIXQ/S (7,000 M_r) from the estimated size of the cross-linked complex we estimate that the size of the protein to which the FIXQ/S peptide binds is approximately 94,000 M_r.

## bovine vitamin K-dependent carboxylase (94,000 Mr protein from bovine liver microsomes) (from UniProt Q07175) (enzyme)
[1]
  specific activity, 14CO2 incorporation into FLEEL (cpm/mg protein/hr): 2.4e+09

## AVFLDHENANKILNRPKRY [Peptide proFIX19]
[2]
  stimulation of the incorporation of CO2 into FLEEL: 13 fold
[3]
  binding result: binds
